In publication PMC2771873 (2009):
Ends that are not written are not given here.

Biological target: T1, RyRP12 peptide (ryanodine receptor 1) RyRP12 (UniProt P21817, also: TAMRA label, position not given here)
T1 chain: KKAVWHKLLSKQ
Assay: fluorescence anisotropy

B1: S100A1 (protein)
chain: MGSELETAMETLINVFHAHSGKEGDKYKLSKKELKDLLQTELSSFLDVQKDADAVDKIMKELDENGDGEVDFQEFVVLVAALTVACNNFFWENS
Work on B1 yielded a Kd of 139 nM.
